Measurements reported in article PMC8234983, “Unravelling the Complex Denaturant and Thermal-Induced Unfolding Equilibria of Human Phenylalanine Hydroxylase” (International Journal of Molecular Sciences, 2021).

Columns and labels:
[1] = target: the molecule itself; experiment: AUC; sedimentation velocity, 25 °C, 45,000 rpm, 8 µM subunit, 0 M urea (native conditions); c(s) analysis
P00439 [2] = experiment: AUC; sedimentation velocity, 25 °C, 45,000 rpm, 8 µM subunit, incubated overnight in 7.4 M urea; c(s) analysis
P00439 [3] = experiment: AUC; sedimentation velocity, 25 °C, 45,000 rpm, 8 µM subunit, incubated overnight in 5.4 M urea; c(s) analysis
P00439 [4] = experiment: AUC; sedimentation velocity, 25 °C, 45,000 rpm, 8 µM subunit, 0 M urea (native conditions); c(s) analysis

B1: double truncated human phenylalanine hydroxylase (PAHd, Gly103-Thr427; ΔN1-102/ΔC428-452) (domain or fragment, UniProt P00439 103-427, looked up)
chain: GATVHELSRDKKKDTVPWFPRTIQELDRFANQILSYGAELDADHPGFKDPVYRARRKQFADIAYNYRHGQPIPRVEYMEEEKKTWGTVFKTLKSLYKTHACYEYNHIFPLLEKYCGFHEDNIPQLEDVSQFLQTCTGFRLRPVAGLLSSRDFLGGLAFRVFHCTQYIRHGSKPMYTPEPDICHELLGHVPLFSDRSFAQFSQEIGLASLGAPDEYIEKLATIYWFTVEFGLCKQGDSIKAYGAGLLSSFGELQYCLSEKPKLLPLELEKTAIQNYTVTEFQPLYYVAESFNDAKEKVRNFAATIPRPFSVRYDPYTQRIEVLDNT
notes: lacks most of the regulatory and multimerization domains; essentially the catalytic domain; Residues 103-117 are missing in the 1J8T PDB file; also called PAHd(103-427); truncated PAHd
- stoichiometry N [1]: 2
- percent of total signal as aggregates (P00439 [2]): The remaining 40% of the signal are species with sedimentation coefficients from 5.4 S to 18.8 S representing aggregates
- percent of total protein signal as fast-sedimenting polydisperse species (aggregates) (P00439 [3]): from 9.6 S to 92.4 S and accounting for 98.3% of the total protein signal

B2: full-length human phenylalanine hydroxylase (PAHt, Met1-Lys452) (enzyme, UniProt P00439 1-452, looked up)
chain: MSTAVLENPGLGRKLSDFGQETSYIEDNCNQNGAISLIFSLKEEVGALAKVLRLFEENDVNLTHIESRPSRLKKDEYEFFTHLDKRSLPALTNIIKILRHDIGATVHELSRDKKKDTVPWFPRTIQELDRFANQILSYGAELDADHPGFKDPVYRARRKQFADIAYNYRHGQPIPRVEYMEEEKKTWGTVFKTLKSLYKTHACYEYNHIFPLLEKYCGFHEDNIPQLEDVSQFLQTCTGFRLRPVAGLLSSRDFLGGLAFRVFHCTQYIRHGSKPMYTPEPDICHELLGHVPLFSDRSFAQFSQEIGLASLGAPDEYIEKLATIYWFTVEFGLCKQGDSIKAYGAGLLSSFGELQYCLSEKPKLLPLELEKTAIQNYTVTEFQPLYYVAESFNDAKEKVRNFAATIPRPFSVRYDPYTQRIEVLDNTQQLKILADSINSEIGILCSALQKIK
notes: human phenylalanine hydroxylase (EC 1.14.16.1), full-length construction, residues Met 1-Lys 452; No Fe(II) was added to the recombinant protein; also called PAHt(1-452); full-length PAH
- percent of total signal as aggregates (P00439 [4]): aggregates (6% total)
- stoichiometry N [1]: 4
- percent of total signal as aggregates (P00439 [2]): The rest of the protein signal at this high urea concentration, 13%, corresponds to aggregates of fast sedimentation
- percent of total protein signal as fast-sedimenting polydisperse species (aggregates) (P00439 [3]): multiple species of fast sedimentation at a broad range of 10.2–27.9 S representing 98% of the total protein signal
